Assay results as given in US20180030098A1 (NAVIGO PROTEINS, published 2018).

Target: T1, Recombinant human EGFR-Fc Chimera (R&D Systems, catalog no. 344-ER-050) (human, UniProt P00533 25-645)
T1 construct: range 1-645; Bought reagent; Immobilised on the CM5 chip for SPR; also called hEGFR-Fc; not shown: Fc region of human IgG1, fused at the C-terminus
Experiment: SPR (Biacore) on immobilised hEGFR-Fc

B1: Affilin 138838 (designed binder)
chain: MQIFVYTNTGKTITLEVEPSDTIENVKAKIQDKEGIPPDQQRLIWAGKQLEDGRTLSDYNIRNPDILHLVLRLRAAGIGMQIFVHTITGKTITLEVEPSDTIENVKAKIQDKEGIPPDQQRLIWAGKQLEDGRTLSDYNIEGERDLHLVLRLRAA
notes: Affilin of two ubiquitin moieties with PDI motif
With B1 the Kd was 615 nM.
